Measurements taken from the supplement of paper PMC11246515.
± gives the standard deviation of the averaged measurements.

Test: total protein half-life in vivo (active degradation + dilution); higher = more stable protein
[1] = E. coli NCM3722 delta-clpP delta-lon delta-hslV, growth: N-lim chemostat, doubling time 6 h
[2] = E. coli NCM3722 delta-clpP, growth: N-lim chemostat, doubling time 6 h
[3] = E. coli NCM3722 delta-hslV, growth: N-lim chemostat, doubling time 6 h
[4] = E. coli NCM3722 delta-lon, growth: N-lim chemostat, doubling time 6 h
[5] = E. coli NCM3722 delta-smpB, growth: N-lim chemostat, doubling time 6 h
[6] = wild type E. coli NCM3722, growth: C-lim chemostat, doubling time 3 h
[7] = wild type E. coli NCM3722, growth: C-lim chemostat, doubling time 6 h
[8] = wild type E. coli NCM3722, growth: C-lim chemostat, doubling time 12 h
[9] = wild type E. coli NCM3722, growth: N-lim chemostat, doubling time 6 h
[10] = wild type E. coli NCM3722, growth: N-lim chemostat, doubling time 12 h
[11] = wild type E. coli NCM3722, growth: P-lim chemostat, doubling time 6 h
[12] = wild type E. coli NCM3722, growth: P-lim chemostat, doubling time 12 h

Sequence	total protein half-life in vivo [1] [h]	total protein half-life in vivo [2] [h]	total protein half-life in vivo [3] [h]	total protein half-life in vivo [4] [h]	total protein half-life in vivo [5] [h]	total protein half-life in vivo [6] [h]	total protein half-life in vivo [7] [h]	total protein half-life in vivo [8] [h]	total protein half-life in vivo [9] [h]	total protein half-life in vivo [10] [h]	total protein half-life in vivo [11] [h]	total protein half-life in vivo [12] [h]
MKFFALFIYRPVATILLSVAITLCGILGFRMLPVAPLPQVDFPVIIVSASLPGASPETMASSVATPLERSLGRIAGVSEMTSSSSLGSTRIILQFDFDRDINGAARDVQAAINAAQSLLPSGMPSRPTYRKANPSDAPIMILTLTSDTYSQGELYDFASTQLAPTISQIDGVGDVDVGGSSLPAVRVGLNPQALFNQGVSLDDVRTAVSNANVRKPQGALEDGTHRWQIQTNDELKTAAEYQPLIIHYNNGGAVRLGDVATVTDSVQDVRNAGMTNAKPAILLMIRKLPEANIIQTVDSIRAKLPELQETIPAAIDLQIAQDRSPTIRASLEEVEQTLIISVALVILVVFLFLRSGRATIIPAVSVPVSLIGTFAAMYLCGFSLNNLSLMALTIATGFVVDDAIVVLENIARHLEAGMKPLQAALQGTREVGFTVLSMSLSLVAVFLPLLLMGGLPGRLLREFAVTLSVAIGISLLVSLTLTPMMCGWMLKASKPREQKRLRGFGRMLVALQQGYGKSLKWVLNHTRLVGVVLLGTIALNIWLYISIPKTFFPEQDTGVLMGGIQADQSISFQAMRGKLQDFMKIIRDDPAVDNVTGFTGGSRVNSGMMFITLKPRDERSETAQQIIDRLRVKLAKEPGANLFLMAVQDIRVGGRQSNASYQYTLLSDDLAALREWEPKIRKKLATLPELADVNSDQQDNGAEMNLVYDRDTMARLGIDVQAANSLLNNAFGQRQISTIYQPMNQYKVVMEVDPRYTQDISALEKMFVINNEGKAIPLSYFAKWQPANAPLSVNHQGLSAASTISFNLPTGKSLSDASAAIDRAMTQLGVPSTVRGSFAGTAQVFQETMNSQVILIIAAIATVYIVLGILYESYVHPLTILSTLPSAGVGALLALELFNAPFSLIALIGIMLLIGIVKKNAIMMVDFALEAQRHGNLTPQEAIFQACLLRFRPIMMTTLAALFGALPLVLSGGDGSELRQPLGITIVGGLVMSQLLTLYTTPVVYLFFDRLRLRFSRKPKQTVTE	6.8 ± 0.5	6.49 ± 0.36	5.92 ± 0.38	7.42 ± 0.68	5.44 ± 0.14	3.64 ± 0.29	6.08 ± 1	14.4 ± 0.89	5.78 ± 0.89	13.8 ± 0.8	6.3 ± 0.2	12.2 ± 0.66
MSRTTTVDGAPASDTDKQSISQPNQFIKRGTPQFMRVTLALFSAGLATFALLYCVQPILPVLSQEFGLTPANSSISLSISTAMLAIGLLFTGPLSDAIGRKPVMVTALLLASICTLLSTMMTSWHGILIMRALIGLSLSGVAAVGMTYLSEEIHPSFVAFSMGLYISGNSIGGMSGRLISGVFTDFFNWRIALAAIGCFALASALMFWKILPESRHFRPTSLRPKTLFINFRLHWRDRGLPLLFAEGFLLMGSFVTLFNYIGYRLMLSPWHVSQAVVGLLSLAYLTGTWSSPKAGTMTTRYGRGPVMLFSTGVMLFGLLMTLFSSLWLIFAGMLLFSAGFFAAHSVASSWIGPRAKRAKGQASSLYLFSYYLGSSIAGTLGGVFWHNYGWNGVGAFIALMLVIALLVGTRLHRRLHA	1.3	1.36 ± 0.35	1.46 ± 0.017	1.1 ± 0.07	2.24 ± 0.1	–	–	–	1.42 ± 0.079	2.65 ± 0.55	–	2.5
MASKFQNRLVGTIVLVALGVIVLPGLLDGQKKHYQDEFAAIPLVPKAGDRDEPDMMPAATQALPTQPPEGAAEEVRAGDAAAPSLDPATIAANNTEFEPEPAPVAPPKPKPVEPPKPKVEAPPAPKPEPKPVVEEKAAPTGKAYVVQLGALKNADKVNEIVGKLRGAGYRVYTSPSTPVQGKITRILVGPDASKDKLKGSLGELKQLSGLSGVVMGYTPN	4.2 ± 0.25	5.15 ± 2.6	3.72 ± 0.18	3.63 ± 0.44	3.52 ± 0.13	2.45 ± 0.036	3.46 ± 0.32	6.92 ± 0.23	3.32 ± 0.14	5.77 ± 1.7	2.83 ± 0.55	5.38 ± 0.026
MHNQAPIQRRKSTRIYVGNVPIGDGAPIAVQSMTNTRTTDVEATVNQIKALERVGADIVRVSVPTMDAAEAFKLIKQQVNVPLVADIHFDYRIALKVAEYGVDCLRINPGNIGNEERIRMVVDCARDKNIPIRIGVNAGSLEKDLQEKYGEPTPQALLESAMRHVDHLDRLNFDQFKVSVKASDVFLAVESYRLLAKQIDQPLHLGITEAGGARSGAVKSAIGLGLLLSEGIGDTLRVSLAADPVEEIKVGFDILKSLRIRSRGINFIACPTCSRQEFDVIGTVNALEQRLEDIITPMDVSIIGCVVNGPGEALVSTLGVTGGNKKSGLYEDGVRKDRLDNNDMIDQLEARIRAKASQLDEARRIDVQQVEK	4.85 ± 0.2	2.41 ± 0.11	3.23 ± 0.18	3.18 ± 0.078	2.88 ± 0.19	2.61 ± 0.25	4.69 ± 0.24	7.78 ± 0.65	3.05 ± 0.092	4.29 ± 0.3	4.01 ± 0.28	7.02 ± 0.51
MATLIRLFIHPVKSMRGIGLTHALADVSGLAFDRIFMITEPDGTFITARQFPQMVRFTPSPVHDGLHLTAPDGSSAYVRFADFATQDAPTEVWGTHFTARIAPDAINKWLSGFFSREVQLRWVGPQMTRRVKRHNTVPLSFADGYPYLLANEASLRDLQQRCPASVKMEQFRPNLVVSGASAWEEDRWKVIRIGDVVFDVVKPCSRCIFTTVSPEKGQKHPAGEPLKTLQSFRTAQDNGDVDFGQNLIARNSGVIRVGDEVEILATAPAKIYGAAAADDTANITQQPDANVDIDWQGQAFRGNNQQVLLEQLENQGIRIPYSCRAGICGSCRVQLLEGEVTPLKKSAMGDDGTILCCSCVPKTALKLAR	5.8 ± 0.31	5.98 ± 1.1	6.18 ± 1.1	5.9 ± 0.56	5.39 ± 0.28	2.97 ± 0.61	6.03 ± 0.76	10.1 ± 0.74	5.69 ± 0.15	10.54 ± 0.032	5.71 ± 0.41	10.2 ± 1.8
MIDVLGPEKRRRRTTQEKIAIVQQSFEPGMTVSLVARQHGVAASQLFLWRKQYQEGSLTAVAAGEQVVPASELAAAMKQIKELQRLLGKKTMENELLKEAVEYGRAKKWIAHAPLLPGDGE [P0CF42]	2.54 ± 0.27	–	–	–	–	0.121	–	1.26	0.716	1.37	–	–
MQTSPLLTQLMEALRCLPGVGPKSAQRMAFTLLQRDRSGGMRLAQALTRAMSEIGHCADCRTFTEQEVCNICSNPRRQENGQICVVESPADIYAIEQTGQFSGRYFVLMGHLSPLDGIGPDDIGLDRLEQRLAEEKITEVILATNPTVEGEATANYIAELCAQYDVEASRIAHGVPVGGELEMVDGTTLSHSLAGRHKIRF [P0A7H6]	5.56 ± 0.29	5.19 ± 0.32	4.36 ± 0.27	4.59 ± 0.36	4.21 ± 0.85	2.52 ± 0.099	4.09	8.57 ± 0.99	4.67	6.74 ± 0.68	4.79 ± 0.23	8.59
MMNDSFCRIIAGEIQARPEQVDAAVRLLDEGNTVPFIARYRKEITGGLDDTQLRNLETRLSYLRELEERRQAILKSISEQGKLTDDLAKAINATLSKTELEDLYLPYKPKRRTRGQIAIEAGLEPLADLLWSDPSHTPEVAAAQYVYADKGVADTKAALDGARYILMERFAEDAALLAKVRDYLWKNAHLVSTVVSGKEEEGAKFRDYFDHHEPLSTVPSHRALAMFRGRNEGVLQLSLNADPQFDEPPKESYCEQIIMDHLGLRLNNAPADSWRKGVVSWTWRIKVLMHLETELMGTVRERAEDEAINVFARNLHDLLMAAPAGLRATMGLDPGLRTGVKVAVVDATGKLVATDTIYPHTGQAAKAAMTVAALCEKHNVELVAIGNGTASRETERFYLDVQKQFPKVTAQKVIVSEAGASVYSASELAAQEFPDLDVSLRGAVSIARRLQDPLAELVKIDPKSIGVGQYQHDVSQTQLARKLDAVVEDCVNAVGVDLNTASVPLLTRVAGLTRMMAQNIVAWRDENGQFQNRQQLLKVSRLGPKAFEQCAGFLRINHGDNPLDASTVHPEAYPVVERILAATQQALKDLMGNSSELRNLKASDFTDEKFGVPTVTDIIKELEKPGRDPRPEFKTAQFADGVETMNDLQPGMILEGAVTNVTNFGAFVDIGVHQDGLVHISSLSNKFVEDPHTVVKAGDIVKVKVLEVDLQRKRIALTMRLDEQPGETNARRGGGNERPQNNRPAAKPRGREAQPAGNSAMMDALAAAMGKKR	5.48 ± 0.19	4.8 ± 0.3	3.58 ± 0.041	4.124 ± 0.019	3.26 ± 0.074	2.49 ± 0.14	4.69 ± 0.19	7.55 ± 0.32	3.63 ± 0.087	5.457 ± 0.049	3.88 ± 0.065	6.81 ± 0.56
MSQSEFDSALPNGIGLAPYLRMKQEGMTENESRIVEWLLKPGNLSCAPAIKDVAEALAVSEAMIVKVSKLLGFSGFRNLRSALEDYFSQSEQVLPSELAFDEAPQDVVNKVFNITLRTIMEGQSIVNVDEIHRAARFFYQARQRDLYGAGGSNAICADVQHKFLRIGVRCQAYPDAHIMMMSASLLQEGDVVLVVTHSGRTSDVKAAVELAKKNGAKIICITHSYHSPIAKLADYIICSPAPETPLLGRNASARILQLTLLDAFFVSVAQLNIEQANINMQKTGAIVDFFSPGALK [P0ACS7]	6.33 ± 0.37	6 ± 0.24	5.5 ± 0.74	5.71	5.56 ± 0.55	3.07 ± 0.4	6.86 ± 0.23	14.6 ± 1.1	5.77 ± 0.44	11.3 ± 1.8	6.09 ± 0.2	12.5 ± 1.1
